According to patent US20140017235A1 (published 2014):

Molecular target: T1, human NGF (human, UniProt P01138 122-241)
T1 construct: also called hNGF; nerve growth factor
Assay: BIAcore SPR screening, Fab over immobilized human NGF
Description: Affinities of anti-NGF Fabs and monoclonal antibodies were determined using the BIAcore3000™ surface plasmon resonance (SPR) system (BIAcore, INC, Piscaway N.J.). CM5 chips were activated with N-ethyl-N′-(3-dimethylaminopropyl)-carbodiinide hydrochloride (EDC) and N-hydroxysuccinimide (NHS) according to the supplier's instructions. Human NGF was diluted into 10 mM sodium acetate pH 4.0 and injected over the activated chip at a concentration of 0.005 mg/mL. Using variable flow time across the individual chip channels, two ranges of antigen density were achieved: 100-200 response units (RU) for detailed kinetic studies and 500-600 RU for screening assays. The chip was blocked with ethanolamine. […] HBS-EP buffer (0.01M HEPES, pH 7.4, 0.15 NaCl, 3 mM EDTA, 0.005% Surfactant […]) was used as running buffer for all the BIAcore assays.

T1 sequence (P01138 122-241 limits assumed): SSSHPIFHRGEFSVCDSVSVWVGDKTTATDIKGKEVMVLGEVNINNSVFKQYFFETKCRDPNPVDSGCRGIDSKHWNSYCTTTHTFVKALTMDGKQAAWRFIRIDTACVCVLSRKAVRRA

koff: 0.0001 s⁻¹
B1: H19-L129 (Fab, V domains shown)
VH: QVQLQESGPGLVKPSETLSLTCTVSGFSLIGYDLNWIRQPPGKGLEWIGIIWGDGTTDYNSAVKSRVTISKDTSKNQFSLKLSSVTAADTAVYYCARGGYYYGTSYYFDYWGQGTLVTVS
VL: DIQMTQSPSSLSASVGDRVTITCRASQSISNNLNWYQQKPGKAPKLLIYYTSRFHSGVPSRFSGSGSGTDFTFTISSLQPEDIATYYCQQSKTLPYTFGQGTKLEIKR
notes: E. coli Fab with human Ckappa and human IgG2a CH1; also called H19-L129 Fab; Fab H19-L129
